In US12612465B2, “Formulations comprising PCSK9 specific monoclonal antibodies” (Amgen Inc., priority 2012, dated 2026):
Values belong to the molecule of their own block, whether it stands above or below them.

Tests used:
human D374Y PCSK9 = human D374Y PCSK9 (Homo sapiens, UniProt Q8NBP7, D374Y/E620G/G670E/V474I); assay: Receptor ligand blocking screen / functional screening of hybridoma antibodies; assay type: binding
Description: To screen for the antibodies that block PCSK9 binding to LDLR an assay was developed using the D374Y PCSK9 mutant. […] The following protocol was employed in the receptor ligand blocking screen: Costar 3702 medium binding 384 well plates (Corning Life Sciences) were employed in the screen. The plates were coated with goat anti-LDLR (R&D Cat # AF2148) at 2 μg/ml in 1×PBS/0.05% Azide at a volume of 40 μl/well. The plates were incubated at 4° C. overnight. The plates were then washed using a Titertek plate washer (Titertek, Huntsville, Ala.). A 3-cycle wash was performed. The plates were blocked with 90 μl of 1×PBS/1% milk and incubated approximately 30 minutes at room temperature. The plates were then washed using the Titertek plate washer. A 3-cycle wash was performed. The capture sample was LDLR (R&D, Cat #2148LD/CF), and was added at 0.4 μg/ml in 1×PBS/1% milk/10 mM Ca^2+ at a volume of 40 μl/well. The plates were then incubated for 1 hour and 10 minutes at room temperature. Contemporaneously, 20 ng/ml of biotinylated human D374Y PCSK9 was incubated with 15 micro liters of hybridoma exhaust supernatant in Nunc polypropylene plates and the exhaust supernatant concentration was diluted 1:5. The plates were then pre-incubated for about 1 hour and 30 minutes at room temperature. Next, the plates were washed using the Titertek plate washer operated using a 3-cycle wash. 50 μl/well of the pre-incubated mixture was transferred onto the LDLR coated ELISA plates and incubated for 1 hour at room temperature. To detect LDLR-bound b-PCSK9, 40 μl/well streptavidin HRP at 500 ng/ml in assay diluent was added to the plates. The plates were incubated for 1 hour at room temperature. The plates were again washed using a Titertek plate washer. A 3-cycle wash was performed. Finally, 40 μl/well of One-step TMB (Neogen, Lexington, Ky.) was added to the plate and was quenched with 40 μl/well of 1N hydrochloric acid after 30 minutes at room temperature. OD's were read immediately at 450 nm using a Titertek plate reader.
The receptor ligand assay was then repeated using the mutant enzyme on the 384 member subset of neutralizers identified in the first large scale receptor ligand inhibition assay. The same protocol was employed in the screen of the 384 member blocker subset assay as was done in the large scale receptor ligand blocking screen.
Limiting dilution was used to isolate a manageable number of clones from each line. […] The isolated clones were each expanded in 50-100 ml of hybridoma media and allowed to grow to exhaustion, (i.e., less than about 10% cell viability). The concentration and potency of the antibodies to PCSK9 in the supernatants of those cultures were determined by ELISA and by in vitro functional testing, as described herein.

human PCSK9 [1] = target: T1, human PCSK9 (Homo sapiens, UniProt Q8NBP7, E620G/G670E/V474I); assay: BIAcore affinity analysis; assay type: binding
T1 construct: made in house
T1 sequence (Q8NBP7 153-692 V474I/E620G/G670E): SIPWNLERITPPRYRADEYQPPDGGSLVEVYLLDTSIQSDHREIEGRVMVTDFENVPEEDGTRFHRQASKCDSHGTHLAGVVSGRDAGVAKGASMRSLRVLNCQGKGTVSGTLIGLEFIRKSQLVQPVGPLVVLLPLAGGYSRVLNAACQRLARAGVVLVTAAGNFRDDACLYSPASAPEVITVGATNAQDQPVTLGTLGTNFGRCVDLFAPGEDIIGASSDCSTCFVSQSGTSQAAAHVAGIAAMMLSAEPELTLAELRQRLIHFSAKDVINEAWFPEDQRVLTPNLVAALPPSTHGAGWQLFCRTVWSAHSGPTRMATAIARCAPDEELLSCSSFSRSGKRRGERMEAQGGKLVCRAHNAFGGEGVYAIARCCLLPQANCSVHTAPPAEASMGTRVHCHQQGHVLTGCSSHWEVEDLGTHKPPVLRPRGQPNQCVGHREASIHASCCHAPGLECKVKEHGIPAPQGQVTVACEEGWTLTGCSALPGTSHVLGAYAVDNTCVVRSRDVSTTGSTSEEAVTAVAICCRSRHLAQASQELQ
Description: Briefly, the surface plasmon resonance experiments were performed using Biacore 2000 optical biosensors (Biacore, GE Healthcare, Piscataway, N.J.). […] The concentration of PCSK9 protein was varied at 2 fold intervals (the analyte) and was injected over the immobilized antibody surface (at a flow rate of 100 μl/min for 1.5 minutes). […]
The binding signal obtained was proportional to the free PCSK9 in solution.
Antibody binding kinetic parameters including ka (association rate constant), […] (dissociation rate constant), and KD (dissociation equilibrium constant) were determined using the BIA evaluation 3.1 computer program (BIAcore, Inc. Piscataway, N.J.).

human PCSK9 [2] = target: T1, human PCSK9; assay: KinExA affinity analysis; assay type: binding; conditions: hPCSK9, KinExA
From the text: Briefly, Reacti-Gel™ (6×) (Pierce) was pre-coated with one of human, V5-tagged cyno or His-tagged mouse PCSK9 proteins and blocked with BSA. […] Equilibrium dissociation constant (KD) were obtained from nonlinear regression of the two sets of competition curves using a one-site homogeneous binding model. The KinExA® Pro software was employed in the analysis.

PCSK9 protein = target: T2, PCSK9 protein (Mus musculus, UniProt Q80W65); assay: Serum cholesterol and HDL in WT mice, 13 day study; assay type: in vivo; conditions: 10 mg/kg, repeated 13 day study
T2 construct: endogenous in cells; host or cells: WT C57BL/6 mice, in vivo
T2 sequence (Q80W65 156-694): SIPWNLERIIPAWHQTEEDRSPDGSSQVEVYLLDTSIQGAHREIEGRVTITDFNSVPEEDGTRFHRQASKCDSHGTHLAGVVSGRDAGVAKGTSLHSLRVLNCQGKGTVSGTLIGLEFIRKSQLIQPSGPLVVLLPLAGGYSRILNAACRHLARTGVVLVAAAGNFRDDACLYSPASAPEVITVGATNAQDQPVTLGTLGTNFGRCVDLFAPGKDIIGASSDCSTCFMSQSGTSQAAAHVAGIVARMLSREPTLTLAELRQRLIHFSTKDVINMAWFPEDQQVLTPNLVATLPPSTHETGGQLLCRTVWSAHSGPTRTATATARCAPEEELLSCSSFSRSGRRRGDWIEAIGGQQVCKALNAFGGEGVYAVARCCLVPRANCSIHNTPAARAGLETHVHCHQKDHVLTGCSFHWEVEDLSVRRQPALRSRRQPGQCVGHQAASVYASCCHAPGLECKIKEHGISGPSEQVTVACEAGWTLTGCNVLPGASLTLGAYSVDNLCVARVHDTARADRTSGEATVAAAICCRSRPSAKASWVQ
From the text: Male WT mice (C57BL/6 strain, aged 9-10 weeks, 17-27 g) obtained from Jackson Laboratory (Bar Harbor, Me.) were fed a normal chow (Harland-Teklad, Diet 2918) through out the duration of the experiment. […] Naïve mice were also set aside as naïve control group.
Animals were sacrificed and livers were extracted and prepared as in Example 13.

Sequence of human D374Y PCSK9 (Q8NBP7 153-692 D374Y/V474I/E620G/G670E): as the sequence (Q8NBP7 153-692 V474I/E620G/G670E) above, with D222Y counted along it

B1: 13H1: anti-PCSK9 ABP, light/heavy variable region SEQ ID NO 28/91 (antibody, listed as Homo sapiens, V domains shown)
VH: QVQLQQSGPGLVKPSQTLSLTCAISGDSVSSNSAAWNWIRQSPSRGLEWLGRTYYRSKWYKNYSVSVKSRITINPDTSKNQFSLQLNSVTPGDTAVYYCARGGPTAAFDYWGQGTLVTVSS
VL: LSALTQPASVSGSPGQSITISCTGTSSDVGNYNLVSWYQQYSGKAPKLMIYEVSKRPSGVSNRFSGSKSGNTASLTISGLQAEDEADYYCCSYAGSSTLVFGGGTKLTVL
neutralizing ability (human D374Y PCSK9): non-neutralizing

B3: 3B6: anti-PCSK9 ABP, light/heavy variable region SEQ ID NO 46/60 (antibody, listed as Homo sapiens, V domains shown)
VH: QVQLVQSGAEVKKPGASVKVSCKASGYTFTSYGISWVRQAPGQGLEWMGWISTYNGNTNYAQKVQGRVTMTTDTSTSTAYMELRSLRSDDTAVYYCARGYTRDYWGQGTLVTVSS
VL: QPVLTQPLFASASLGASVTLTCTLSSGYSSYEVDWYQQRPGKGPRFVMRVDTGGIVGSKGEGIPDRFSVLGSGLNRYLTIKNIQEEDESDYHCGADHGSGTNFVVVFGGGTKLTVL
neutralizing ability (human D374Y PCSK9): weak neutralizers

B5: 13B5: anti-PCSK9 ABP, light/heavy variable region SEQ ID NO 42/69 (antibody, listed as Homo sapiens, V domains shown)
VH: EVQLLESGGGLVQPGGSLRLSCAASGFTFSSYAMSWVRQAPGKGLEWVSTISGSGGRTYYADSVKGRFTISRDNSKNTLYLQMNSLRAEDTAVYYCAKEVGSPFDYWGQGTLVTVSS
VL: QSVLTQPPSVSAAPGQKVTISCSGSNSNIGNNYVSWYQQLPGTAPKLLIYDNNKRPSGIPDRFSGSNSGTSATLGITGLQTGDEADYYCGTWDSSLSAVVFGGGTKLTVL
neutralizing ability (human D374Y PCSK9): non-neutralizing

Further lines, with some results ahead:

neutralizing ability (human D374Y PCSK9): non-neutralizing
B2: 27B2: anti-PCSK9 ABP, light/heavy variable region SEQ ID NO 13/87 (antibody, listed as Homo sapiens, V domains shown)
VH: QVQLQESGPGLVKPSQTLSLTCTVSGGSISSGGYYWSWIRQHPGKGLEWIGYIYNSGSTYYNPSLKSRVTISVDTSKNQFSLKLSSVTAADTAVYYCAREDTAMVPYFDYWGQGTLVTVSS
VL: QSVLTQPPSVSGAPGQRVTISCTGSSSNIGAHYDVHWYQQVPGTAPKLLIYGNTYRPSGVPDRFSGSKSGTSASLAITGLQAEDEADYYCQSYDNSLSGVVFGGGTKLTVL

blocking of PCSK9/LDLR in the functional assays (human D374Y PCSK9; hybridoma clones): neutralizing
B4: 25A7: anti-PCSK9 ABP, light/heavy variable region SEQ ID NO 15/58; neutralizing clone 25A7.3 (antibody, listed as Homo sapiens, V domains shown)
VH: QVQLVQSGAEVKKPGASVKVSCKASGYTFPSYGISWVRQAPGQGLEWMGWISAYNGNTNYAEKLQGRVTMTTDTSTSTAYMEVRSLRSDDTAVFYCARGYVMDVWGQGTTVTVSS
VL: QSALTQPASVSGSPGQSITISCTGTSSDVGRYNSVSWYQHHPGKAPKVMIYEVSNRPSGVSTRFSGSKSGNTASLTISGLQAEDEADYYCSSYTSSSVVFGGGTKLTVL

Kd (human PCSK9 [1]; hPCSK9, pH 7.4 (Table 7.1)): 470 pM
Koff (human PCSK9 [1]; pH 6): 7.007e-05 s⁻¹
Kon (human PCSK9 [1]; pH 6): 2.392e+06 M⁻¹ s⁻¹
Kd (human PCSK9 [1]; pH 6 (pH 6.0 HBS-P buffer, n=1)): 29 pM
Koff (human PCSK9 [1]; pH 7.4): 4.983e-05 s⁻¹
Kon (human PCSK9 [1]; pH 7.4): 106400 M⁻¹ s⁻¹
Kd (human PCSK9 [1]; pH 7.4 (Table 7.2)): 470 pM
Kd (human PCSK9 [2]): 15 pM
B6: 16F12: anti-PCSK9 ABP, light/heavy variable region SEQ ID NO 35/79 (antibody, listed as Homo sapiens, V domains shown)
VH: QVHLVESGGGVVQPGRSLRLSCAASGFTFNSFGMHWVRQAPGKGLEWVALIWSDGSDEYYADSVKGRFTISRDNSKNTLYLQMNSLRAEDTAVYYCARAIAALYYYYGMDVWGQGTTVTVSS
VL: QSVLTQPPSVSAAPGQKVTISCSGSSSNIGNNFVSWYQQLPGTAPKLLIYDYNKRPSGIPDRFSGSKSGTSATLGITGLQTGDEADYYCGTWDSSLSAYVFGTGTRVTVL
total serum cholesterol after a single dose (PCSK9 protein): significant and substantial decreases in total serum cholesterol
